# Source: the nanobody polyreactivity screen of Harvey et al. (2022)
# Test: yeast display, Sf9 membrane polyspecificity reagent, FACS + sequencing; frameworks hold sequencing errors
# Procedure, shortened: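 Nanobodies came from a synthetic yeast display library in Saccharomyces cerevisiae BJ5465, induced with galactose for 36–48 hours and stained for 1 hour at 4 °C with 10% biotinylated, detergent-solubilized Sf9 membrane reagent. Cells were enriched on streptavidin microbeads and then FACS-sorted, with low and high (top ~1%) gates set on anti-HA fluorescence for expression and streptavidin fluorescence for reagent binding. Each polyreactivity label reflects the gate a clone came from. Genes were amplified by colony PCR, sequenced by MiSeq 2 × 250 and filtered by CDR length.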
row,Sequence,polyreactivity (PSR sort gate)
1,QVQLVESVGGLVQAGGSLRLSCAASGRTFDGNAMGWYRQAPGKERELVAAIRFNGSTTYYADSVKGRFTISRDNSKNTVYLQMNSLKPEDTAVYYCNKFEGALGGMDYWGQGTQVTVSS,low polyreactivity
2,QVQLVESGGGLVQAGGSLRLSCAASGIIFYDYAMGWYRQAPGKERELVAAITSNGDNTYYADSVKGRFTISRDNAKNTVYLQMNSLKPEDTAVYYCDVDGSFAADFDNYLEEYGYWGQGTQVTVSS,low polyreactivity
3,QVQLVESGGGLVQAGGSLRLSCAASGRIFSMNAMGWYRQAPGKERELVAGIRKRGGSTYYADSVKGRFTISRDNAKNTVYLQMNSLKPEDTAVYFCAAQPALTYRFYYLGQGTQVTVSS,high polyreactivity
4,QVQLVESGGGLVQAGGSLRLSCAASGSIINIYAMGWYRQAPGKERELVATITGIADSTYYADSVKGRFTISRDNAQNSVYLQMNSLKPEETAVYFCAADKYVAEYDYWGQGSQVTVSS,low polyreactivity
5,QVQLVESGGGLVQAGGSLRLSCAASGSTFYYYAMGWYRQATGKERELVAAISGRGGSTYYADSVKGRFTISRDNAKNTVYLQMNSLKPEDTAVYYCNKRRAAGGFPYDYWGQGTQVTVSS,high polyreactivity
6,QVQLVESGGGLVQAGGSLRLSCAASGSIFLVNAMGWYRQAPGKERELVAAITWIGGSTYYADSVKGRFTISRDNAKNTVYLQMNSLKPEDTAVYYCAAYGKRLGGGGYYWGQGTQVTVSS,high polyreactivity
7,QVQLVESGGGLVQAGGSLRLSCAASGRIFGDNAMGWYRQAPGKERELVAGIRWRADRTYYADSVKGRFTISRDNAKNTVYLQMNSLKPEDTAVYYCNADVVRYRHWHRGDYWGQGTQVTVSS,low polyreactivity
8,QVQLVESGGGLVQAGGSLRLSCAASGRTFYNYAMGWYRQAPGKERELVAAIRGSGGSTYYADSVKGRFTISRDNAKNTVYLQMNSLKPEETAVYYCNAVSQSSEYDYWGHGTQVTVSS,high polyreactivity
9,QVQLVESGGGLVQAGGSLRLSCAASGSIFDIYAMAWYRQAPGKERELVADITSGGRTDYADSVKGRFTISRDNGKNTVYLQMNSLKPEDTAVYYCAADYIWDSVYWYISSYDYWGQGTKVTVSS,low polyreactivity
10,QVQLVESGGGLVQAGGSHRLSCAASGRIFSYNSMGWYRQAPGKERELVAAITSGGSTYYADSVKGRFTISRDNAKNTVYLQMNSLKPEDTAVYYCAVRSYYFVSRYTRTLYGFDYWGQGTQVTVSS,low polyreactivity
11,QVQLVESGGGLVQAGGSLRLSCAASGFIFLRYGMGWYRKAPGKERELVASIDSTGGSTYADSVKGRFTISRDNAKNTVYLQMNSLKPEDTAVYYCAAAYYIVSERDYWGQGTQVTVSS,low polyreactivity
12,QVQLVESGGGLVQAGGSLRLICAASGTFVTYMGWYRQAPGKERELVAAIRNGGSTNYADSVKGRFTISRDNAKNTVYLQMNSLKPEDTAVYYCAARVTYSRGYRGGSRTKYDYWGQGTQVTVSS,low polyreactivity
13,QVQLVETGGGLVQAGGSLRLSCAASGSTFTSNAMGWYRPAPGKERELVAAIDSSDGITYYADSVKGRFTISRDNAKNTVYLQMNSLKPEDTAVYYCAAEDYEAGYDYWGQGTQVTVSS,high polyreactivity
14,QVQLVQSAAGLVHAGGSLRLSCAASGIIFYGYAMVSYRQAPGKERELVAAITSYDGSTYYADSVKGRFTISRDNAKNTVYLQMNSLKPEDTAEYYCAADYSTYEGWYWFDYWGQGSQVTVSS,high polyreactivity
15,QDQLVDSGGGLVQAGGSLRLSCAASGFTFFRKAMGWYREAPGKERQLVAAITRAGSTYYADSVKGRFTISRDNAKNTVYLQMNSLKAEDTEVYYCFDLSNRYAVRYDYWGQGTQVTVSS,high polyreactivity
16,QVQLVESGGGLVQAGGSLRLSCAASGFTFFHYAMGWYRQAPGKERELVAAIDYSAGSTYYADSVKGRFTISRDNAKNTVYLQMNSMKPEDTAVYYCAADARTSRGRRYYYWGQGTQVTVSS,low polyreactivity
17,QVQLVESGGGLVQAGGSLRLSCAASGRTFFYNAMAWYRQAPGKERESTYYADSVKGRFTISRDNAKNTVYLQMNSLIPEDTAVSYCAAGTAYVAYEGDKGDYCGQGTQVTVSS,low polyreactivity
18,QVQLVESGGCLVQAGGSLRLSCAASGRTIRVYAMGWYRQAPGKARELVASITRAGGTYADSVKGRFTISRDIAKNPDYLQMNSLKPEDTAVYFCNARWQRSTGGRQRYDYWGQGTQVTVSS,high polyreactivity
19,QVQLHESGGGLVQAGGSQRLSCASSGYIFYFQYMGWYRQAPGKEREFVAAISDGANTNYADSVKGRFTISRDNAKNTEYLQMNSLKPEDTAVYYCNADQYYWYEYDYWGQGTQVTVSS,low polyreactivity
20,QVQLVESGGGLVQAGGSLRLSCAASGRTFRGNAMGWYRQATGKERELVDVITASGSTTYADSVKGRFTISRDNAKNTVYLQLYSLKPEDTAVYYCAKYVPWYTLWLGGTDRDYWGQGTQVTVSS,low polyreactivity
21,QVQLVESGGCLVQAGGSLRLSCAASGSIFSRNVMGWYRKAPGKERELVAAITGSGGRTYYADSVKGRFTISRDNAKNTVYLQMNSLKPEDTAVYYCAKSRPGTYDYWGPGTQVTVSS,high polyreactivity
22,QVQLVESVGGLVQAGGSLRLSCASSGRIFRGNAMGWYRQAPGKERELVAAINSRGTHTYYADSVKGRFTISRDNAKNTVYLQMNSLKPEDTAVYYCAATWTQPQPGYYAYYYWGQGTQVSVSS,high polyreactivity

row,Sequence,polyreactivity (PSR sort gate)
1,QVQLVESGGGLVQAGGSLRLSCAASGIIFDPYAMGWYRQAPGKERELVADIDNASSTYYADSVKGRFTISRDNAKNTVYLQMNSLKPEDTAVYYCAADLWYGGEYWGQGTQVTVSS,low polyreactivity
2,QVQLVESGGGLVQAGGSLRLSCAASGSTFGVNAMGWYRQAPGKERELVADMSFRTDSTYYADSVKGRFTISRDNAKNTVYLQMNRLNPEDTAVYYCAAEVPYYYPGFYSYYDDSDYWGQGTQVTVSS,low polyreactivity
3,QVQLVESGGGLVQAGGSLRLSCAASGFTFSYYAMGWYIQAPGKERELVATITWGGGRTYYADSVKGRFTISRDNAKNTVYLQMNSLKPEDTAVYYCNAERTYFQYYRNYDYWGQGTKVTVSS,low polyreactivity
4,QVQLVESGGGLVQAGGSLRLSCAASGSTYNVNAMGWARQAPGKERELVAAITSSGGSSNYADSVKGRFTISRDNAKNTVYLQMNSLKPEDTAVYYCAADAIFFSRLNLGYDYWGQGTQVTVSS,low polyreactivity
5,QVQLVESGGGLVQAGGSLRLSCAASGSTFYSYAMGWYRQAPGKERELVAAITSGGSTNYADSVKGRFTISRDNAKNTVYLQMNRLKPEDTAVYYCARKYWHRSYGYDYWGQGTQVTVSS,low polyreactivity
6,QVQLVESGGGLVQAGGSLRLSCAASGLIFPVYAMGWYRQAPGKEREFVASIWRGGTTYYADSVKGRFTISRDNAKNTVYLQMNSLKPEDTAVYYCAARYYPRGLVFPFTKYDYWGQGTQVTVSS,high polyreactivity
7,QVQLVESGGGLVQAGGSLRLSCAASGFTLRYYAMGWYRQAPGKERELVATINRSGASTYYADSVKGRFTISRDNAKNTVYLQMNRLKPEDTAVYYCNTATSRAYRYDYWGQGTQVTVSS,high polyreactivity
8,QVQLVESGGGLVQAGGSLRLSCAASGSTFYSYAMGWYRQAPGKEREFVAAITDSGGSTYYADSVTGRFTISRDNAKNTVYLQMNSLKPEDTAVYYCAKRQYQSYIRGPYYYWGQGTQVTVSS,low polyreactivity
9,QVQLVESGGGLVQAGGSLRLSCAASGRIFPDYAMGWYRQAPGKERELVAAISSSGGRTYYADSVKGRFTISRDNAKNTVYLQMNSLKPEDTAVYYCAARGSYTSIFDYWGQGTQVTVSS,high polyreactivity
10,QVQLVESGGGLVQAGGSLRLSCAASGLIFAEYAMGWYRQAPGKERELVARITSGGSTDYADSVKGRFTISRDNAKNTVYLQMNSLKPEDTAVYYCAARYYSQDKNASTASDFDYWGQGTQVTVSS,low polyreactivity
11,QVQLVESGGGLVQAGGSLRLSCAASGSTFGGYVMGWYRQAPGKERELVAAISRSGASTYYADSVKGRFTISRDNAKNTVYLQMNSLKPEDTAVYYCAAYQARGMDYWGQGTQVTVSS,high polyreactivity
12,QVQLVESGGGLVQAGGSLRLSCAASGRTFGNYAMGWYRQAPGKERELVAAISSGRSTNYADSVKRRFTISRDNGKNTVYLQMNSLKPEDTAVYYCNADWGFPDVKETGVRFDYWGQGTQVTVSW,low polyreactivity
13,QVQLVESGGGLVEAGGSLRLSCAASGSTFGSNAMGWYRQGPGKARELVARISKRGGSTYYADSVKGRFTISRDKAKNTVSIQINSLKPDDTAVYYCNVRSWWGYTGPYDYWRQGTQVTVSS,high polyreactivity
14,QVQLVESGGGLVQAGGSLRLSCAASGRIFATNAMGWYRPAPGKERELVATITRSAGRTYYADSVKGRFTISRDNAKNTVYLQMNSLKPEDTAVYYCAASYWDTEPGYREYDYWGQGTQVTVSS,low polyreactivity
15,QVQLVESGGGLVQAGGSLRLSCAASGRIYVPNAMGWYRQAPGKERELVAAITSDGRTNDADSVKGRFTISRDNAKNTVYVQMNSLKPEDTAVYYSNAPVVTFGGYQDDVEYGYWGQGTQVTVSS,low polyreactivity
16,QVQLVESGGGLVQAGGSLRLSCAASGSTFDRNVMGWYRQAPGKERELVAAISRVSSTNYSDSVKGRFTISRDNAKNTVYLQMNSLKPEDTAVYYCAADRAGSIMNYWGQGTQVTVSS,low polyreactivity
17,QVQLVESGGGLVQAGGSLRLSCAASGSTFNRYAMGWYRQAPGKERELVAGISYSGTRTYYADSVKGRVTISRDNAKNTVYLQMNSLKPEDTAVYYCAAVYPGPYYARRRLFYWGQGTQVTVSS,high polyreactivity
18,QVQLVESGGGLVQAGGSLRLSCAASGSIFPSYAMGWYRQAPGKERELVATIGRGGTTNYADSVKGRFTISRDNAKNTVYLQMNSLKPEDTEVYYCNAERIWRYKYGYDYWGQGTQVTVSS,high polyreactivity
19,QVQLVESGGGLVQAGGSLRLSCAASGYTFASYTLGWYRQAPGKERELVATISRGGGRTYYADSVKGRFTISRDNAKNTVYLQMNSLKPEDTAVYYCAARWWYYNGGRDYWGQGTQVTVSS,high polyreactivity
20,RVQLVESGGGLVQAGGSHRLSCAASGRIFKNYAIGWYRQAPGKQRELVASITIGSTTYAESEKGRFTISRDNAKNTVYLKMNSLKREDTAVYYCAARRPRGFQGPNPWGYYYWGQGTQVTVSS,high polyreactivity
21,QVQLVESGGGLVQAGGSLRLSCAASGFIFVIYAMGWSRQAPGKERELVAAIRWRGGGTYYADSVKGRFTISRDNAKNTVYLQMYSLKPEDTAVYYCNADGWTYREEYWWRMDYWGQGTQVTVSS,low polyreactivity
